Experimental data as given in the supplement of paper PMC9170038.

System: MS2 coat protein
Assay: apparent KD of MS2 coat protein; designed switch direction (-1 OFF switch, 1 ON switch): -1; higher = weaker reporter binding
Method in brief: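 Designed RNA switches with common flanks were transcribed on Illumina chips by stalled E. coli RNA polymerase and titrated with SNAP-549-labelled MS2 coat protein, from 0.7 or 1.5 nM doubling to 3 µM, in Tris-HCl pH 7.5 buffer with KCl, MgCl2, BSA, DTT, tRNA and Tween-20. Steps lasted 0.8–1.5 h (lowest) to 10–20 min (highest). Titrations ran without input, with 200 uM small-molecule ligand, or with an oligonucleotide input. Normalised cluster fluorescence was curve-fitted, and apparent KD is the per-design median over clusters.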

[1] = input ligand: microRNA oligo, concentration not stated
[2] = Eterna round: R95, input ligand: microRNA oligo, concentration not stated
[3] = Eterna round: R95, input ligand: FMN 200 uM
[4] = Eterna round: R95, input ligand: none

| Sequence | apparent KD of MS2 coat protein (input ligand: FMN 200 uM) | apparent KD of MS2 coat protein (input ligand: none) | apparent KD of MS2 coat protein [2] | also measured |
| --- | --- | --- | --- | --- |
| CCCAGUUAGGAAGGAUAUUGUACAUGAGGAUCACCCAUGUAAUAAAUGAGGAUCUCGGAUGUCUACAAGAAGGUCCGGAUAGGC [Ostracism 11 - Jieux - Exclusion NG 2] (Eterna round: R96, puzzle: Exclusion NG 2) | 65.9 nM | 44.5 nM | – | apparent KD of MS2 coat protein [1]: 34.3 nM |
| UCAAGUAUGUAGGAUAUCGAUGUCUUCGGACAUCGAGAAGGACGUACAUGAGGAUCACCCAUGUAACUUGCAUG [Exclusion 6 - B - 10:a] (puzzle: Exclusion 6) | – | – | 55.2 nM | – |
| AACCUACAUGAGGAUCACCCAUGUGAGGAUAUAUUGGUAUUUAUAUUAUUUUUUAGAGGUAGAAGGCGCGUGAU [JR_Exc1_Sub021] (Eterna round: R97, puzzle: Exclusion 1) | 14.2 nM | 14.2 nM | – | – |
| GUCAUCACACAUGGGAUCAACAUGAGGAUCACCCAUGUUGUCAAGUUUUUUGCUCGUCUUAUAAUACGUUUGAUGAC [Mod-Jxc] (Eterna round: R97, puzzle: Sensor, turn-off variant 1) | 26.7 nM | – | – | – |
| UAAUAUAGUGUGAGGAUAUGCUGGUCGAUAGAUCAGCAGAAGGCACAUGAGGAUCACCCAUGUAAUAUAUUAAA [Mat - Exclusion 4 - JL Mod - D36] (puzzle: Brourd's mod of Exclusion 4) | – | – | 30.7 nM | apparent KD of MS2 coat protein [3]: 64.6 nM; apparent KD of MS2 coat protein [4]: 42.9 nM |
| AAUUUACAUGAGGAUCACCCAUGUGAGGAUAUGGUUUCGCUGGCCGUAGCCAGUGGAACCAGAAGGCGCGUGAU [Mat - Exclusion 1 - JL Mod - D28] (Eterna round: R97, puzzle: Exclusion 1) | 195 nM | 84.3 nM | – | – |
| UCGGCGCGAGGAUAUACGUUUGCGCUUUUUCGUUUUUGCGUACAUGAGGAUCACCCAUGUAGAAGGCGCGCCGC [Apr-15 SS2-17] (puzzle: Exclusion 2) | – | – | 14 nM | – |
| CGUGACUCAGGAUAUGGAUUAUAUCACAUGAGGAUCACCCAUGUCCAGCGAAAGCUGGAGUCAGAAGGGAGUCACG [Fiskers Ex 5 - 48] (puzzle: Exclusion 5) | – | – | 70.9 nM | apparent KD of MS2 coat protein [3]: 34.9 nM; apparent KD of MS2 coat protein [4]: 85.4 nM |
| CCUCUACAUGAGGAUCACCCAUGUGAGGAUAUGUUGACGAGCCAGAAAUGGCUGGUCAACAGAAGGCAUAUGUA [Exclusion 1 (Mod 2.1 solution 16 by Eternabot)] (Eterna round: R97, puzzle: Exclusion 1) | 43.7 nM | 23.7 nM | – | – |
| AGUUCUAACACGAAAGUGUUAGUACAAUAAGCUUGUGAAACAUGAGGAUCACCCAUGUCCUCAUAAGCUCGUCUUAU [salish99_TOv2_r3_013] (puzzle: Sensor v3, turn-off variant 2) | – | – | 667 nM | apparent KD of MS2 coat protein [3]: 15.4 nM; apparent KD of MS2 coat protein [4]: 14.7 nM |
| UCCGCCAAAGGAUAUACUGGGCGUUAAAAUCCUCUUAAAAGACAUGAGGAUCACCCAUGUAGAAGGUUGAGGAA [Isererri] (puzzle: Exclusion 2) | – | – | 201 nM | – |
| CUGGUGUGAGGAUAUCAAAGACCUCGGGAAAGAACCGAGAAUGAGAAGGCACAUGAGGAUCACCCAUGUAACAA [Enerteon] (puzzle: Exclusion 4) | – | – | 17.9 nM | – |
| UAACUACAUGUAGGAUAUGCGUGGCGAAGCUAUGCAGAAGGACAUGAGGAUCACCCAUGUUUUAGCGUCUGCGUACAGAUGCGU [JL ENG1 1.50] (Eterna round: R96, puzzle: Exclusion NG 1) | 34.8 nM | 19.1 nM | – | apparent KD of MS2 coat protein [1]: 13.1 nM |
